First the molecules themselves.
T1: wild-type IL-12 heterodimeric Fc fusion protein (IgG1Fc(knob)-IL12p35 / IgG1Fc(hole)-IL12p40) (human, UniProt P29459 23-219; P29460 23-328)
T1 construct: also called wild-type IL-12 Fc; IL-12 Fc wt; not shown: human IgG1 Fc (knob) with artificial disulfide and N297G; human IgG1 Fc (hole) with artificial disulfide and N297G
T1 sequence 1: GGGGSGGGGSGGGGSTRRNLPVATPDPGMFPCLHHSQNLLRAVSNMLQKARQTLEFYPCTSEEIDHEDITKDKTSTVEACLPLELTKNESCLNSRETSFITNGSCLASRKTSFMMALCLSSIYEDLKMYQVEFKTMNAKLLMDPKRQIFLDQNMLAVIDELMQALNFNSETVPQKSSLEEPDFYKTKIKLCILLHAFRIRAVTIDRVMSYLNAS
T1 sequence 2: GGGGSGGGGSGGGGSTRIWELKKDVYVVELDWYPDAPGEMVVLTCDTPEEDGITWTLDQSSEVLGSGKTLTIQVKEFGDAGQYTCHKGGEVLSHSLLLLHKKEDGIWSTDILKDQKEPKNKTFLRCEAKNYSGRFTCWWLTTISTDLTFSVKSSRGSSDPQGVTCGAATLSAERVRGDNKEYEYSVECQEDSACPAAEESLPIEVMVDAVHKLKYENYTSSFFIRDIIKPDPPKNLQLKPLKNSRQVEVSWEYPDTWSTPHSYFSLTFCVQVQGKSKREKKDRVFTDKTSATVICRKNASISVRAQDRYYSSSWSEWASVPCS

B1: IL-12 Fc K170A mutant (Fc-C-terminal fusion format of Example 1) (Fc fusion, not shown: a dimerising Fc or GST)
chain 1: T1 sequence 1 with K187A
chain 2: T1 sequence 2
B2: IL-12 Fc single mutant D126A (Fc-C-terminal fusion format of Example 1) (Fc fusion)
chain 1: T1 sequence 1 with D143A
chain 2: T1 sequence 2
notes: not shown: human IgG1 Fc (knob) with artificial disulfide and N297G; human IgG1 Fc (hole) with artificial disulfide and N297G
B3: IL-12 Fc single mutant K168A (Fc-C-terminal fusion format of Example 1) (Fc fusion)
chain 1: T1 sequence 1 with K185A
chain 2: T1 sequence 2
notes: as for B2
B4: truncated form of the IL-12Rβ2 extracellular region (domains 1-3) (receptor)
chain: KIDACKRGDVTVKPSHVILLGSTVNITCSLKPRQGCFHYSRRNKLILYKFDRRINFHHGHSLNSQVTGLPLGTTLFVCKLACINSDEIQICGAEIFVGVAPEQPQNLSCIQKGEQGTVACTWERGRDTHLYTEYTLQLSGPKNLTWQKQCKDIYCDYLDFGINLTPESPESNFTAKVTAVNSLGSSSSLPSTFTFLDIVRPLPPWDIRIKFQKASVSRCTLYWRDEGLVLLNRLRYRPSNSRLWNMVNVTKAKGRHDLLDLKPFTEYEFQISSKLHLYKGSWSDWSESLRAQTPEE
notes: also called interleukin 12 receptor beta 2
B5: IL-12 Fc single mutant P127A (Fc-C-terminal fusion format of Example 1) (Fc fusion)
chain 1: T1 sequence 1 with P144A
chain 2: T1 sequence 2
notes: as for B2
B6: IL-12 Fc single mutant Y40A (Fc-C-terminal fusion format of Example 1) (Fc fusion, not shown: a dimerising Fc or GST)
chain 1: T1 sequence 1 with Y57A
chain 2: T1 sequence 2

Substitutions are numbered along the chain they refer to. Numbers in names are those of the source.

Assay [1] deals with IL-12 receptor on HEK-Blue IL-12 cells (InvivoGen) (human, UniProt P42701 24-662; Q99665 24-862). Description: cell-based or functional assay.
In assay [2] the target is B4. Put plainly: SPR (Biacore T100, 20 C); IL-12 Fc captured on a protein A chip (220 RU), IL-12Rbeta2 (domains 1-3) as analyte; 1:1 Langmuir model. A general note: SPR reads the build-up and loss of mass on a sensor chip optically.
Experimental: (§1) SPR measurements were recorded on a Biacore T100 at 20° C. in a buffer comprising 20 mM sodium phosphate pH 7.4, 150 mM NaCl and 0.05% Tween20. […] Following a 300 second dissociation phase, the remaining bound IL-12Rβ2 was washed off the chip using 50 mM Glycine pH 2.5, followed by 50 mM NaOH (30 second injections for each). Kinetic parameters were calculated using BIAevaluation software using a 1:1 Langmuir model, following subtraction of binding to a reference flow cell containing an isotype control antibody.
Assay [3] addresses B4. Put plainly: SPR (Biacore T100, 20 C); IL-12 Fc captured on a protein A chip (230 RU), IL-12Rbeta2 (domains 1-3) as analyte; 1:1 Langmuir model.
Experimental: as §1
The target of assay [4] is T1, wild-type IL-12 heterodimeric Fc fusion …. Put plainly: SPR as in Example 3; immobilized IL-12 Fc, IL-12Rbeta2 injected at 0.7-500 nM.
Experimental: as §1
Assay [5] has the same target. Description: SPR (Biacore T100, 20 °C), IL-12 Fc captured on protein A chip, IL-12Rβ2 domains 1-3 as analyte, 1:1 Langmuir model.
Experimental: as §1
Assay [6] has as its target B4. Description: SPR (Biacore T100, 20 C); IL-12 Fc captured on a protein A chip (190 RU), IL-12Rbeta2 (domains 1-3) as analyte; 1:1 Langmuir model.
Experimental: as §1

6 molecules from patent US20240150422A1 (ONKO INNATE, published 2024) can be followed below.

The term Kd denotes the equilibrium constant for the complex coming apart. A lower Kd goes with a tighter complex.

For B1, the “HEK-Blue IL-12 reporter assay, fold reduction in EC50 value” in assay [1] was ~16 fold (vs wild-type).
As to B2, the Kd in assay [2] was determined as 42.9 nM.
B3: the Kd in assay [3] is 130 nM.
As to B4, the Kd in assay [4] came to 53.2 nM; in assay [5], 13.1 nM.
B5: the “HEK-Blue IL-12 reporter assay, fold reduction in potency” value in assay [1] is ~2 fold (vs IL-12 Fc w.t.). In assay [6], this molecule showed a dissociation constant (Kd) of 44.3 nM.
For B6, in assay [1], the “HEK-Blue IL-12 reporter assay, fold reduction in EC50 value” is ~17 fold (vs IL-12 Fc w.t.) and the “HEK-Blue IL-12 reporter assay, fold reduction in potency” value was ~29 fold (vs IL-12 Fc w.t.).
